According to US20070036810A1, “Cyclic amp response element activator proteins and uses related thereto” (priority 2003, published 2007):

Legend:
Type in all cases: cell-based
[1] = test system: GAL4 DNA binding sites (UAS-Luc, pFR-Luc reporter); test: GAL4 DNA binding domain fusion transactivation assay (pFR-Luc) in HEK 293 cells; conditions: normalized to pCMV-BD vector
Description: To determine if CREAP proteins can act as a transcription activators, various regions of all 3 CREAP homologs (amino acids 300-650 of CREAP1, amino acids 296-694 of CREAP2 and amino acids 335-635 of CREAP3) were expressed as fusion proteins with the DNA binding domain of GAL4 and tested for the ability to activate expression of a reporter gene linked to GAL4 protein binding sequences (UAS-Luc (pFR-Luc reporter). Briefly, the indicated regions of CREAP1, CREAP2 and CREAP3 were amplified by PCR and subcloned in frame into pCMV-BD vector (Stratagene) encoding GAL4 DNA binding domain. Selected plasmids and empty vector (pCMV-SPORT6) were transfected into HEK 293 cells at 75 ng/well using Fugene6 transfection reagent (Roche) as described above. pFR-Luc reporter (Stratagene) encoding firefly luciferase gene driven by minimal promoter linked to 5 concatamerized GAL4 binding sites (UAS) was co-transfected at 100 ng/well. As a positive control, the reporter was also co-transfected with a plasmid encoding GAL4-CREB fusion protein (Stratagene) alone or in the presence of pFC-PKA an expression construct encoding catalytic subunit of protein kinase A (Stratagene) to activate the CREB kinase inducible activation domain. Fold induction was compared to the reporter's activity measured in the cells transfected with pCMV-BD an expression vector carrying GAL4 DNA binding domain only. […]

GAL4-CREB fusion protein = test: GAL4-CREB activation assay in HLR cell line; conditions: HLR cell line with integrated pFR-Luc reporter, normalized to pCMV-BD vector
Protocol: To determine if CREAP proteins can directly activate CREB1 protein, the expression constructs of CREAP1, CREAP2 and CREAP3 were transfected individually or with GAL4-CREB plasmid (Stratagene) into HLR cell line (Stratagene) carrying genomic DNA integrated copies of pFR-Luc reporter. Briefly, HLR cells were maintained per manufacturer's instructions. Selected plasmids and either empty vector (pCMV-BD) or GAL4-CREB plasmid were transfected at 75 ng/well using Fugene6 transfection reagent (Roche) as described above. As a positive control pFC-PKA an expression construct encoding catalytic subunit of protein kinase A (Stratagene) was also co-trasfected with GAL4-CREB. Fold of activation was compared to the reporter's activity measured in the cells transfected with empty vector.
The ability of full length CREAP1, CREAP2 and CREAP3 to induce the activity of GAL4-CREB fusion protein (Stratagene) was tested. The data presented are normalized to the value seen with pCMV-BD vector. […] Note the fold induction obtained with positive control is lower when compared to the data from Table 6 when all the plasmids including the reporter were transiently transfected.

human IL-8 promoter = test: pGL2-IL-8p-Luc reporter inducibility in HEK 293 cells; conditions: HEK 293 cells treated with 50 ng/ml for 16 hours
Protocol: A luciferase reporter controlled by a 1.5 kB IL-8 promoter containing fragment of human IL-8 promoter was tested for inducibility by known regulators of cytokine-mediated gene expression. pNF-κB-Luc (BD Biosciences) and pGL2-IL-8p-Luc reporters were co-transfected into HEK 293 cells with expression constructs encoding known activators of the NF-κB pathway, truncated MEKK (AA 360-672) (Stratagene) and a full length TRAF6 cDNA made according to conventional methods using a proprietary clone collection. Cells co-transfected with empty pCMV-Sport6 vector were either left untreated or treated with TNFα (50 ng/ml, for 16 hours). Luciferase activity was measured 48 hours post transfection. The pNF-κB-Luc reporter was used as a positive control.

[2] = test system: secreted IL-8 protein from HeLa cells; test: IL-8 Elisa assay in HeLa cells; conditions: after transfection
Protocol: HeLa cells are transfected with DNA samples selected from the group of sequence verified and confirmed hits at 100 ng per well in 96 well plates (Costar) using the protocol described above. DNA samples designated as co-activators are co-transfected at 25 ng per well. Empty vector pCMV-Sport6 is used as a negative control. 72 hours post-transfection IL-8 content is measured in the cell growth media in prediluted aliquots corresponding to 1 to 5 μl of conditioned growth media using an IL-8 Elisa kit (Sigma) following the provided protocol. As a positive control, growth media is collected from the cells transfected with empty vector and treated with IL-1β and TNFα (R&D Systems) at 5 ng/ml and 50 ng/ml respectively for 16 hours prior to collection of the growth media for the IL-8 assay.

Substance: GAL4-CREB: plasmid encoding GAL4-CREB fusion protein (Stratagene) [reference compound]
- Fold Induction [1]: 7.66
- Fold Induction (GAL4-CREB fusion protein): 75.55

Substance: TNFα [reference compound]
- increase of IL-8 promoter-reporter activity (human IL-8 promoter): 4.7 times

Substance: relA: subunit of NF-κB transcription factor, expression construct [reference compound]
- accumulation of secreted IL-8 protein [2]: induced small increases
